The text below walks through data of article PMC3092513 (Enzyme Research, 2011).

Substrate in series [1]: O=C(O)C(=O)C[C@@H](O)[C@H](O)[C@H](O)COP(=O)(O)O
The experiment in a line: purified protein. In kind it is biochemical, Pyrococcus furiosus. Conditions: 60 °C, pH 6.8, 50 mM BTP, 10 μM EDTA, 100 μM ZnCl2, 29 μM NAD+, 56 nM enzyme.

Series [2] concerns the molecule itself. The experiment in a line: SEC; Superdex S200 HR 10/300; 10 mM BTP, 10 μM EDTA, 50 mM KCl, pH 6.8; partially purified protein at ≤10 mg/mL; mass estimated from a standard curve of five proteins; dimer of the enzyme.
Substrate in series [3]: O=C(O)C(=O)C[C@@H](O)[C@H](O)[C@H](O)COP(=O)(O)O
The experiment in a line: purified protein. Conditions: 25 °C, pH 6.8. In kind it is biochemical, Escherichia coli.

B1: Pyrococcus furiosus dehydroquinate synthase (enzyme, UniProt Q8U0A8 1-335, looked up)
chain: MEGIIFGDLSTLPDLLSSLSPYKVVVLTNTTLKELWLEEVLTWLKEFKPQTIVVPDGEKYKDLDTVRYIWEKLLEMGFTRRSLLIGLGGGVITDIAGFVASTYMRGTYLGLVPTTLLAQVDAAIGGKTGINFYGKNIIGTFYLPKFVLICRDFLKTLPMVEILNGLAEVVKYGILDKEVYNAIKTMNSPREIVEREDIIKKSVAVKLRIVEEDLKENGKRRVLNLGHTVGHAIEKISDYKIKHGFAVSMGLVVEAKIGEILYGFDSGKVVEILTKFGLPVKIPFDPYTTLQAMKIDKKAWYGKIVIVVPVEIGKANIEEVDEKIILQALEEAKNA
As for B1, in the series “purified protein [1]”, the Km stood at 3.7 ± 0.2 µM, the kcat turned out to be 3 ± 0.1 s⁻¹ and the kcat/Km amounted to 800000 M⁻¹ s⁻¹. In addition, the “stoichiometry N” value in series [2] is 2.

B2: EcoDHQS (Escherichia coli K-12) (protein)
chain: MERIVVTLGERSYPITIASGLFNEPASFLPLKSGEQVMLVTNETLAPLYLDKVRGVLEQAGVNVDSVILPDGEQYKSLAVLDTVFTALLQKPHGRDTTLVALGGGVVGDLTGFAAASYQRGVRFIQVPTTLLSQVDSSVGGKTAVNHPLGKNMIGAFYQPASVVVDLDCLKTLPPRELASGLAEVIKYGIILDGAFFNWLEENLDALLRLDGPAMAYCIRRCCELKAEVVAADERETGLRALLNLGHTFGHAIEAEMGYGNWLHGEAVAAGMVMAARTSERLGQFSSAETQRIITLLKRAGLPVNGPREMSAQAYLPHMLRDKKVLAGEMRLILPLAIGKSEVRSGVSHELVLNAIADCQSA
notes: recombinant, overexpressed in E. coli RB791 from plasmid of J. R. Coggins; ammonium sulfate and anion exchange; no tag mentioned
In the case of B2, in the series “purified protein [3]”, the Km came to 6.3 ± 0.2 µM, the kcat is 16 ± 0.2 s⁻¹ and the kcat/Km came out at 2.5e+06 M⁻¹ s⁻¹.
